# Measurements taken from patent US9993536B2, “Peptides and combination of peptides and scaffolds for use in immunotherapy against renal cell carcinoma (RCC) and other cancers” (immatics biotechnologies GmbH, priority 2015, dated 2018).
# Target: HLA-A*02:01 (Homo sapiens, UniProt P04439, D140Y/D185E/D98H/E176V/E277Q/G131W/G231S/I119V/I121R/I166T/I218V/L300P/L318F/N151K/N90K/P208A/P217A/Q86G/Q94H/R138H/R169H/T345S)
# Assay: MHC binding assay (UV-ligand exchange, beta2m ELISA)
# Conditions: peptide exchange yield, HLA-A*02:01, UV-ligand exchange
# Text: Candidate peptides for T cell based therapies according to the present invention were further tested for their MHC binding capacity (affinity). The individual peptide-MHC complexes were produced by UV-ligand exchange, where a UV-sensitive peptide is cleaved upon UV-irradiation, and exchanged with the peptide of interest as analyzed. Only peptide candidates that can effectively bind and stabilize the peptide-receptive MHC molecules prevent dissociation of the MHC complexes. To determine the yield of the exchange reaction, an ELISA was performed based on the detection of the light chain (β2m) of stabilized MHC complexes. The assay was performed as generally described in Rodenko et al. (Rodenko et al., 2006).
# 96 well MAXISorp plates (NUNC) were coated over night with 2 ug/ml streptavidin in PBS at room temperature, washed 4× and blocked for 1 h at 37° C. in 2% BSA containing blocking buffer. Refolded HLA-A*02:01/MLA-001 monomers served as standards, covering the range of 15-500 ng/ml. Peptide-MHC monomers of the UV-exchange reaction were diluted 100 fold in blocking buffer. Samples were incubated for 1 h at 37° C., washed four times, incubated with 2 ug/ml HRP conjugated anti-β2m for 1 h at 37° C., washed again and detected with TMB solution that is stopped with […]. Absorption was measured at 450 nm. Candidate peptides that show a high exchange yield (preferably higher than 50%, most preferred higher than 75%) are generally preferred for a generation and production of antibodies or fragments thereof, and/or T cell receptors or fragments thereof, as they show sufficient avidity to the MHC molecules and prevent dissociation of the MHC complexes.
row,Substance,Peptide exchange (MHC class I binding score)
1,1 (ALIVSLPYL; listed as Homo sapiens) [compound 1],+++ (≥50 = +++)
2,69 (ILADLLPSL; listed as Homo sapiens) [compound 69],++ (≥20% = ++)
3,70 (SLTALRLLL; listed as Homo sapiens) [compound 70],++ (≥20% = ++)
4,71 (ALDGHLYAV; listed as Homo sapiens) [compound 71],+++ (≥50 = +++)
5,72 (YSLEKVFGI; listed as Homo sapiens) [compound 72],++ (≥20% = ++)
6,73 (GLDGIPFTV; listed as Homo sapiens) [compound 73],+++ (≥50 = +++)
7,74 (GLFHKQVTV; listed as Homo sapiens) [compound 74],+++ (≥50 = +++)
8,75 (FLIKSINLV; listed as Homo sapiens) [compound 75],+++ (≥50 = +++)
9,76 (VLADDHLIEV; listed as Homo sapiens) [compound 76],++ (≥20% = ++)
10,77 (SLIKHKIML; listed as Homo sapiens) [compound 77],++ (≥20% = ++)
11,78 (ALLDTVVQA; listed as Homo sapiens) [compound 78],++ (≥20% = ++)
12,79 (ALADIVWRA; listed as Homo sapiens) [compound 79],+++ (≥50 = +++)
13,80 (KLASMLETL; listed as Homo sapiens) [compound 80],+++ (≥50 = +++)
14,81 (SLLPALPKL; listed as Homo sapiens) [compound 81],++ (≥20% = ++)
15,82 (SLLQATDFMSL; listed as Homo sapiens) [compound 82],+++ (≥50 = +++)
16,83 (IQWSIVPEV; listed as Homo sapiens) [compound 83],+++ (≥50 = +++)
17,84 (YLMDEGAHL; listed as Homo sapiens) [compound 84],++ (≥20% = ++)
18,85 (FVMSEIRTV; listed as Homo sapiens) [compound 85],+++ (≥50 = +++)
19,86 (GLLQGKLALL; listed as Homo sapiens) [compound 86],++ (≥20% = ++)
20,88 (TLAELHISL; listed as Homo sapiens) [compound 88],++ (≥20% = ++)
21,89 (SLLLAVTEV; listed as Homo sapiens) [compound 89],++ (≥20% = ++)
22,90 (FTLEKNFVI; listed as Homo sapiens) [compound 90],++ (≥20% = ++)

row,Substance,Peptide exchange (MHC class I binding score)
1,91 (MLLSSLVSL; listed as Homo sapiens) [compound 91],++ (≥20% = ++)
2,92 (FLFRDILEL; listed as Homo sapiens) [compound 92],+++ (≥50 = +++)
3,93 (GVMAGDIYSV; listed as Homo sapiens) [compound 93],++++ (≥75% = ++++)
4,94 (ILHHKVYDL; listed as Homo sapiens) [compound 94],++ (≥20% = ++)
5,96 (TLAETLVNL; listed as Homo sapiens) [compound 96],+++ (≥50 = +++)
6,97 (TLISELVQA; listed as Homo sapiens) [compound 97],++ (≥20% = ++)
7,99 (GLAPHLEQI; listed as Homo sapiens) [compound 99],++ (≥20% = ++)
8,100 (KLNVAPLAV; listed as Homo sapiens) [compound 100],++ (≥20% = ++)
9,101 (HIYDKAFITV; listed as Homo sapiens) [compound 101],++ (≥20% = ++)
10,102 (LLFDVHTTL; listed as Homo sapiens) [compound 102],+++ (≥50 = +++)
11,103 (KLQDGLLHI; listed as Homo sapiens) [compound 103],++ (≥20% = ++)
12,104 (ALFEGVVRQI; listed as Homo sapiens) [compound 104],+++ (≥50 = +++)
13,105 (ALADLDELLIRA; listed as Homo sapiens) [compound 105],+++ (≥50 = +++)
14,106 (VLMDLKALL; listed as Homo sapiens) [compound 106],+++ (≥50 = +++)
15,107 (VLMDLKALLL; listed as Homo sapiens) [compound 107],+++ (≥50 = +++)
16,108 (VLISVLQAI; listed as Homo sapiens) [compound 108],++ (≥20% = ++)
17,109 (YLWSRVEKL; listed as Homo sapiens) [compound 109],++++ (≥75% = ++++)
18,110 (LLDLHSYLL; listed as Homo sapiens) [compound 110],++ (≥20% = ++)
19,111 (TLLETEMLL; listed as Homo sapiens) [compound 111],++ (≥20% = ++)
20,112 (LLFDHLEPIEL; listed as Homo sapiens) [compound 112],+++ (≥50 = +++)
21,113 (SLFDWNVKL; listed as Homo sapiens) [compound 113],+++ (≥50 = +++)
22,114 (ALAVNISAA; listed as Homo sapiens) [compound 114],+++ (≥50 = +++)

# System: CD8+ T cells
# Assay: In vitro T-cell priming assay with aAPCs loaded with peptide/MHC complexes and anti-CD28 (immunogenicity, multimer staining)
# Type: cell-based, human
# Conditions: healthy HLA-A*02+ donors; share of positive donors
# Text: In order to obtain information regarding the immunogenicity of the TUMAPs of the present invention, the inventors performed investigations using an in vitro T-cell priming assay based on repeated stimulations of CD8+ T cells with artificial antigen presenting cells (aAPCs) loaded with peptide/MHC complexes and anti-CD28 antibody.
# In order to perform in vitro stimulations by artificial antigen presenting cells loaded with peptide-MHC complex (pMHC) and anti-CD28 antibody, the inventors first isolated CD8+ T cells from fresh HLA-A*02 leukapheresis products via positive selection using CD8 microbeads (Miltenyi Biotec, Bergisch-Gladbach, Germany) of healthy donors obtained from the University clinics Mannheim, Germany, after informed consent.
# PBMCs and isolated CD8+ lymphocytes were incubated in T-cell medium (TCM) until use consisting of RPMI-Glutamax (Invitrogen, Karlsruhe, Germany) supplemented with 10% heat inactivated human AB serum (PAN-Biotech, Aidenbach, Germany), 100 U/ml Penicillin/100 μg/ml Streptomycin (Cambrex, Cologne, Germany), 1 mM sodium pyruvate (CC Pro, Oberdorla, Germany), 20 μg/ml Gentamycin (Cambrex). 2.5 ng/ml IL-7 (PromoCell, Heidelberg, Germany) and 10 U/ml IL-2 (Novartis Pharma, Nürnberg, Germany) were also added to the TCM at this step.
# Generation of pMHC/anti-CD28 coated beads, T-cell stimulations and readout was performed in a highly defined in vitro system using four different pMHC molecules per stimulation condition and 8 different pMHC molecules per readout condition.
# The purified co-stimulatory mouse IgG2a anti human CD28 Ab 9.3 (Jung et al., 1987) was chemically biotinylated using Sulfo-N-hydroxysuccinimidobiotin as recommended by the manufacturer (Perbio, Bonn, Germany). Beads used were 5.6 μm diameter streptavidin coated polystyrene particles (Bangs Laboratories, Illinois, USA).
# pMHC used for positive and negative control stimulations were A*0201/MLA-001 (peptide […] (SEQ ID NO. 152) from modified Melan-A/MART-1) and A*0201/DDX5-001 ([…] from DDX5 (SEQ ID NO. 153)), respectively.
# 800.000 beads/200 μl were coated in 96-well plates in the presence of 4×12.5 ng different biotin-pMHC, washed and 600 ng biotin anti-CD28 were added subsequently in a volume of 200 μl. Stimulations were initiated in 96-well plates by co-incubating […] CD8+ T cells with 2×10^5 washed coated beads in 200 μl TCM supplemented with 5 ng/ml IL-12 (PromoCell) for 3 days at 37° C. Half of the medium was then exchanged by fresh TCM supplemented with 80 U/ml IL-2 and incubating was continued for 4 days at 37° C. This stimulation cycle was performed for a total of three times. For the pMHC multimer readout using 8 different pMHC molecules per condition, a two-dimensional combinatorial coding approach was used as previously described (Andersen et al., 2012) with minor modifications encompassing coupling to 5 different fluorochromes. Finally, multimeric analyses were performed by staining the cells with Live/dead near IR dye (Invitrogen, Karlsruhe, Germany), CD8-FITC antibody clone SK1 (BD, Heidelberg, Germany) and fluorescent pMHC multimers. For analysis, a BD LSRII SORP cytometer equipped with appropriate lasers and filters was used. Peptide specific cells were calculated as percentage of total CD8+ cells. Evaluation of multimeric analysis was done using the FlowJo software (Tree Star, Oregon, USA). In vitro priming of specific multimer+ CD8+ lymphocytes was detected by comparing to negative control stimulations.
row,Substance,in vitro immunogenicity: donors
1,123 (YVDPVITSI; listed as Homo sapiens) [compound 123],++++ (>=70% = ++++)
2,127 (VLAPLFVYL; listed as Homo sapiens) [compound 127],++++ (>=70% = ++++)
3,143 (ALFVRLLALA; listed as Homo sapiens) [compound 143],+++ (50%-69% = +++)

# Same assay, conditions: healthy HLA-A*02+ donors; share of positive wells
row,Substance,in vitro immunogenicity: wells
1,123 (YVDPVITSI; listed as Homo sapiens) [compound 123],+ (<20% = +)
2,127 (VLAPLFVYL; listed as Homo sapiens) [compound 127],++ (20%-49% = ++)
3,143 (ALFVRLLALA; listed as Homo sapiens) [compound 143],+ (<20% = +)

# Same assay, conditions: in vitro immunogenicity, HLA class I peptides; percentage of positive wells
row,Substance,Wells positive [%]
1,1 (ALIVSLPYL; listed as Homo sapiens) [compound 1],+ (<20% = +)
